Results: publication PMC5458144 (2017)

Target: CRL4A-CRBN (Homo sapiens, UniProt Q96SW2)
Assay: TR-FRET

CRL4A-CRBN, sequence (Q96SW2 whole entry, chain 1 of 4): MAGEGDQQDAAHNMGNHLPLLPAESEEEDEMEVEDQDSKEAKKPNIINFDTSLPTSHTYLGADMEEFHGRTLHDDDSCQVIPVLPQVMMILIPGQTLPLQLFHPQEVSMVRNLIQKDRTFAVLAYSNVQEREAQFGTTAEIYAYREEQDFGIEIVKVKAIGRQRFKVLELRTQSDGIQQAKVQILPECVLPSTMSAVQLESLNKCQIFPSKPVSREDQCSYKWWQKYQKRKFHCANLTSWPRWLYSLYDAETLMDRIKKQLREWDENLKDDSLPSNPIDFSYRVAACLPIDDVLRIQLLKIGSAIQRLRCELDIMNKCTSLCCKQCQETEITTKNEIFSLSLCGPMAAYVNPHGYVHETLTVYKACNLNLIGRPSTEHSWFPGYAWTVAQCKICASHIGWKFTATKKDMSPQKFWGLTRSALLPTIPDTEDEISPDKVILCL
CRL4A-CRBN, sequence (Q16531 2-1140, chain 2 of 4, further chain): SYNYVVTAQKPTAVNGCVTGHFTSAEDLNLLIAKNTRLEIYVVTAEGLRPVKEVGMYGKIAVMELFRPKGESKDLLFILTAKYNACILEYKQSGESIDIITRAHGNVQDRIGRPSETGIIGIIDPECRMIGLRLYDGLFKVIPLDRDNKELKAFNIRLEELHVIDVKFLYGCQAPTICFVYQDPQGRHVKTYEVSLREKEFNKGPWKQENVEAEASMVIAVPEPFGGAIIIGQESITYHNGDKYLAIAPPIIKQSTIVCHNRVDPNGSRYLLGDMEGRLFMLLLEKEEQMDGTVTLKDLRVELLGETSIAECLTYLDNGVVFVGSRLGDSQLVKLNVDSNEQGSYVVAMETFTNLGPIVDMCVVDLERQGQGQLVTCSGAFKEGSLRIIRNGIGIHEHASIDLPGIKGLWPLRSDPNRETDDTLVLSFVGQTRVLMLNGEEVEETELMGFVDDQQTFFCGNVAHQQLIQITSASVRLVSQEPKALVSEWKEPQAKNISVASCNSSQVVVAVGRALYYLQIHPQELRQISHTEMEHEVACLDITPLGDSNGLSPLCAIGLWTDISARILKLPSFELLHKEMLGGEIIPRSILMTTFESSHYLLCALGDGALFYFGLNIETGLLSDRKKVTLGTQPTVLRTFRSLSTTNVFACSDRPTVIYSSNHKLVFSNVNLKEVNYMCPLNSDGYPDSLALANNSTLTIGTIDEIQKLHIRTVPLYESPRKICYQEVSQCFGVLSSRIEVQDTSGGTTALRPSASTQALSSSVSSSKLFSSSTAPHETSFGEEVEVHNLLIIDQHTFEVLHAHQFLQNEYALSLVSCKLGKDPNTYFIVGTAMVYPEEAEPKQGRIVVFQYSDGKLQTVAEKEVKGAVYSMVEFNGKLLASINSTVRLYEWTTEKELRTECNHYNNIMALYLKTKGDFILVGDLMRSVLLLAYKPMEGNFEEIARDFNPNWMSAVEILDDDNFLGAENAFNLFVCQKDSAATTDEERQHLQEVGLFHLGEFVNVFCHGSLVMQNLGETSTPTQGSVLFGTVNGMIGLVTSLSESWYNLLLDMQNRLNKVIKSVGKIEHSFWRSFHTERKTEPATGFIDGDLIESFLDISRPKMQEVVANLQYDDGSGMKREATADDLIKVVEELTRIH
CRL4A-CRBN, sequence (Q13619 whole entry, chain 3 of 4, further chain): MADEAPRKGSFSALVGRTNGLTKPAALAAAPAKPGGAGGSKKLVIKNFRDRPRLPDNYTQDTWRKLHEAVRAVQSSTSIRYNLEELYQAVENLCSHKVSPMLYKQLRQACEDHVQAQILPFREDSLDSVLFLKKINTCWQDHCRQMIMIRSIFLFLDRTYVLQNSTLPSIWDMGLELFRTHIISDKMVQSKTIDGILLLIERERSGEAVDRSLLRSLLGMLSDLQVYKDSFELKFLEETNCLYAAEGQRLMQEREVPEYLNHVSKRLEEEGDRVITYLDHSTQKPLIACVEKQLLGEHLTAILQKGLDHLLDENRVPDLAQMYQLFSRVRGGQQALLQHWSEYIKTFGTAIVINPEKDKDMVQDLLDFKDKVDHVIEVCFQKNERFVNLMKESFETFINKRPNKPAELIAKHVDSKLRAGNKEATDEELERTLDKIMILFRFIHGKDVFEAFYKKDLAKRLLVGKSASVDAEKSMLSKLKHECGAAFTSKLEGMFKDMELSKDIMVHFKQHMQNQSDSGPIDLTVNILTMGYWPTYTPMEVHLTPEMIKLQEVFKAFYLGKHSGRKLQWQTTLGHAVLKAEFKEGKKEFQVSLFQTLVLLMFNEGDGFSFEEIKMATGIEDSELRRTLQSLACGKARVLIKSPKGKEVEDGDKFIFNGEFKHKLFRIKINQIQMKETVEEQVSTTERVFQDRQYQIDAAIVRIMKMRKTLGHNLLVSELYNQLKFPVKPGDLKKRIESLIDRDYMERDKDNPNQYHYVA
CRL4A-CRBN, sequence (P62877 2-108, chain 4 of 4, further chain): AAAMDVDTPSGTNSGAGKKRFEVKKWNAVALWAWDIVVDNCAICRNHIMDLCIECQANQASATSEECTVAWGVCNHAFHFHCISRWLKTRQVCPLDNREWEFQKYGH

B1: ZFP91 (protein)
chain: PGETEEPRPPEQQDQEGGEAAKAAPEEPQQRPPEAVAAAPAGTTSSRVLRGGRDRGRAAAAAAAAAVSRRRKAEYPRRRRSSPSARPPDVPGQQPQAAKSPSPVQGKKSPRLLCIEKVTTDKDPKEEKEEEDDSALPQEVSIAASRPSRGWRSSRTSVSRHRDTENTRSSRSKTGSLQLICKSEPNTDQLDYDVGEEHQSPGGISSEEEEEEEEEMLISEEEIPFKDDPRDETYKPHLERETPKPRRKSGKVKEEKEKKEIKVEVEVEVKEEENEIREDEEPPRKRGRRRKDDKSPRLPKRRKKPPIQYVRCEMEGCGTVLAHPRYLQHHIKYQHLLKKKYVCPHPSCGRLFRLQKQLLRHAKHHTDQRDYICEYCARAFKSSHNLAVHRMIHTGEKPLQCEICGFTCRQKASLNWHMKKHDADSFYQFSCNICGKKFEKKDSVVAHKAKSHPEVLIAEALAANAGALITSTDILGTNPESLTQPSDGQGLPLLPEPLGNSTSGECLLLEAEGMSKSYCSGTERVSLMADGKIFVGSGSSGGTEGLVMNSDILGATTEVLIEDSDSAGP
modifications: lenalidomide
- Kd: 107 nM
